# Test results as given in patent US20250361297A1, “ANTI- SIGLEC-15 BINDING MOLECULES AND METHODS OF USE” (ADAPTAM THERAPEUTICS, S.L., priority 2024, published 2025).
# T1: Siglec-15 on human macrophages (Homo sapiens, UniProt Q6ZMC9)
# T1 construct: endogenous in cells; host or cells: human monocyte-derived macrophages from donor PBMCs
# T1 sequence (Q6ZMC9 20-328): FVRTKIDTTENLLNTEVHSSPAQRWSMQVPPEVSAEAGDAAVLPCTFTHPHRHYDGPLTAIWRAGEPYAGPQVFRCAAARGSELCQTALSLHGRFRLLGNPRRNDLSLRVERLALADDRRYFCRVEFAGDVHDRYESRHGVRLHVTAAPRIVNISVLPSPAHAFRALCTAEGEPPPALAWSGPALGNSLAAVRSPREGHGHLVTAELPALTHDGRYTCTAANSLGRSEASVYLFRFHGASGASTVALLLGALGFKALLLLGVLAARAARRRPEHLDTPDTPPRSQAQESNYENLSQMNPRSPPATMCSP
# T2: human Siglec-15 (Homo sapiens, UniProt Q6ZMC9)
# T2 construct: expressed in transfected cells
# T2 sequence (Q6ZMC9 20-328): T1 sequence (Q6ZMC9 20-328)
# B1: S15B1: parental mouse anti-Siglec-15 monoclonal antibody from hybridoma; VH SEQ ID NO: 18, VL SEQ ID NO: 19 (antibody, V domains shown)
# VH: QVQLQQSGPELVKPGASVKISCKASGYAFSSSWMNWVKQRPGKGLEWIGRIYPGHGETNYNGKFKDKATVTADKSSSTTYMQLSSLTSEDSAVYFCARVDNSDPYYFDYWGQGTTLTVSS
# VL: DIVLTQSPASLAVSLGQRATISCRASKSVSTSGYSYMHWYQQKPGQPPKLLIYLASNLESGVPARFSGSGSGTDFTLNIHPVEEEDAATYYCQHGRELPFTFGSGTKLEIK
# modifications: Clone S15B1 VH; Clone S15B1 VL
# Key:
# [1] = system: osteoclast differentiation; assay: Osteoclast differentiation in vitro (TRACP 5b in culture medium); type: cell-based; conditions: relative to baseline levels; culture medium at day 7 (FIG. 46)
# [2] = system: recombinant cynomolgus Siglec-15 protein; assay: ELISA binding to recombinant cynomolgus Siglec-15 protein; set-up: species or system cynomolgus monkey; conditions: ELISA (FIG. 11B)
# Procedure: Binding to human, cynomolgus and mouse Siglec-15 by ELISA: 96-well micro plates were coated with 50 μl of 2 μg/ml cynomolgus Siglec-15-his protein (Bonopusbio, CW70-50 ug), or 2 μg/ml mouse Siglec-15-his protein (Bonopusbio, CW71-50 ug), or 2 μg/ml human Siglec-15-his protein (Bonopusbio, CW37-50 ug) in carbonate/bicarbonate buffer (pH 9.6) overnight at 4° C. ELISA plates were washed once with wash buffer (PBS+0.1% v/v Tween-20, PBST) and then blocked with 200 μl/well blocking buffer (3% w/v non-fatty milk in PBST) 1 hour at room temperature. Plates were washed 3 times and incubated with […] serially diluted anti-Siglec-15 antibodies of the disclosure or controls (starting at 198 nM, 3-fold serial dilution in PBST with 1% w/v non-fatty milk) for 2 hours at room temperature. ELISA plates were washed 3 times again and incubated with Peroxidase Goat anti-Human IgG Fc Secondary Antibody (100 μl, 1:5000 dilution in PBST buffer, A18817 Thermo Scientific) for 1 hour at room temperature. After another 3 washes, plates were incubated with 100 μl/well TMB (N301, Thermo Scientific). The reaction was stopped 2 minutes later at room temperature with 50 μl of STOP solution (N600, Thermo Scientific), and the absorbance of each well was read on a NIVO microplate reader at 450. OD values were plotted against antibody concentration. Data was analyzed using Graphpad Prism software.
# osteoclast activation = assay: Osteoclast activation in vitro (CTX-I in culture medium); type: cell-based; conditions: relative to baseline; control odanacatib 1 μM (FIG. 47)
# [3] = biological target: T1, Siglec-15 on human macrophages; assay: Flow cytometry binding to Siglec-15 positive human macrophages; conditions: compared to clone 5G12 (FIG. 3)
# Procedure: Post-polarization, the macrophages were harvested, washed using Flow Cytometry Staining Buffer (00-4222-26, Thermo Fisher Scientific), and subsequently incubated with fluorochrome-conjugated antibodies against Siglec-15, PD-L1, CD206, and CD163. This step was performed for 30 minutes at 4° C. in a dark environment to prevent photobleaching of the fluorochromes and to maintain the integrity of the antibodies.
# Following incubation, the cells underwent a second washing step and then resuspended in 200 μL of Flow Cytometry Staining Buffer containing DAPI (1:10,000) (D1306, Invitrogen). DAPI is a nuclear stain that facilitates the identification of viable cells and enables the exclusion of dead cells or debris during analysis. The stained cells were analyzed using a FACSymphony flow cytometer (BD Biosciences). The flow cytometry data were then processed and analyzed using FlowJo software (BD Biosciences).
# human Siglec-15 = biological target: T2, human Siglec-15; assay: Competitive flow cytometry assay with benchmark antibodies; type: binding
# Procedure: Epitope mapping assay by Flow cytometry: Competition with benchmark mouse IgG antibodies: 50,000 cells/well of THP-1 S15 OE were added to a round bottom 96 well plate, and centrifuged at 450×G for 5 minutes, and the supernatant was discarded. Human anti-siglec-15 IgG antibodies (starting at 198 nM, 3-fold serial dilution in staining buffer) were added to 100 μl of staining buffer and cells were resuspended with it and incubated for 40 minutes on ice. 100 μl of staining buffer were added to wells, centrifuged at 450× G for 5 minutes and the supernatants discarded. Benchmark mouse IgG antibodies were diluted at 33.3 nM and cells resuspended in 100 μl of the mix and incubated for 40 minutes on ice. Then, 100 μl of staining buffer were added to wells, centrifuged at 450×G for 5 minutes and the supernatants discarded. The secondary antibody anti-mouse IgG-Alexa647 was prepared at 1:200 dilution in 100 μl of staining buffer and added to each well, and cells were incubated for 40 minutes on ice. Cells were washed with 100 μl of staining buffer and centrifuged at 450×G for 5 minutes to discard the supernatant. Cells were resuspended in 150 μl of staining buffer and acquired in a flow cytometer.
# recombinant cynomolgus Siglec-15 protein, sequence (as listed by the source): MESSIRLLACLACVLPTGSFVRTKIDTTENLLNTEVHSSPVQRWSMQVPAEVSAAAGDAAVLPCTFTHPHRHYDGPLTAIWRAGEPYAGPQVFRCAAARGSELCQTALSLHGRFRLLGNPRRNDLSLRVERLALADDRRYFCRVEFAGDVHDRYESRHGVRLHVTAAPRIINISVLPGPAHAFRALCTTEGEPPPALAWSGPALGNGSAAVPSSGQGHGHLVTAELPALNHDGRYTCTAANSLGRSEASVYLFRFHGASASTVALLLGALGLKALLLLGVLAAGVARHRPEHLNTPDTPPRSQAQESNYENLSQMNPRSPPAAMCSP
molecule,measurement,setting,value
B1,effect on osteoclast differentiation (TRACP 5b),[1],did not significantly affect
same,extent of binding to cynomolgus Siglec-15 relative to 5G12,[2],higher extent than 5G12
same,effect on osteoclast activation (CTX-I),osteoclast activation,did not significantly affect
same,binding to Siglec-15 on human macrophages,[3],superior binding
same,inhibition of binding of 5G12 (benchmark 1),human Siglec-15; competitive flow cytometry (FIG. 18A),outperformed A2A5C7E8
same,inhibition of binding of A2A5C7E8 (benchmark 2),human Siglec-15; competitive flow cytometry (FIG. 18B),outperformed 5G12
